Usually Kd stands for the equilibrium constant for the complex coming apart. Higher therefore signals weaker binding.

These results are taken from patent US20140249052A1 (University of Washington, published 2014).

This assay deals with T1, streptavidin (from Streptomyces avidinii, 50677, Sigma-Aldrich) (Streptomyces avidinii, UniProt P22629 37-163, limits assumed).
T1 construct: Commercial protein used as received
In words: graphene FET sensor, Langmuir fit of response against concentration; mixed monolayer (25% bio-GrBP5, 75% SS-GrBP5) washed before SA was added, BSA background. On the procedure:
A 20 μl drop of water was placed on the sensor and the resistance was allowed to equilibrate. The device was maintained in a hydration chamber at 100% humidity to prevent evaporation. Analyte was added to the static drop on the sensor in the appropriate concentrations, so that the total volume of the drop never exceeded 35μl. Data was collected from two distinct devices and each experiment was reproduced at least once. See supporting information for additional data.
By combining the anti-fouling properties of SS-GrBP5 with the biotinylated probe peptide, we created a sensor capable of selective detection of streptavidin in a bovine serum albumin solution. A mixed peptide monolayer consisting of 25% bio-GrBP5 and 75% SS-GrBP5 was formed in a single step from a solution with an overall concentration of 10 μg/ml. […] Guided by the results in FIG. 21, we introduced 5 μg/ml BSA to the sensor and detected no binding (FIG. 22C). We then introduced sequentially increasing concentrations of SA to the sensor, while maintaining the levels of BSA, and were able to reliably detect streptavidin at 100 ng/ml, although some signal was present at even lower concentrations (FIG. 22C). […] The overall stability of the bio-GrBP5 appears to have been improved by co-assembly with SS-GrBP5, displaying very high coverage and density. […]

T1 sequence (P22629 37-163 limits assumed): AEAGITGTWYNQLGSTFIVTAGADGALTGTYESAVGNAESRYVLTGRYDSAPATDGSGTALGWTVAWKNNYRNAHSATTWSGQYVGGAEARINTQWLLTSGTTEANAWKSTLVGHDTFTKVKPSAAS

B1: Bio-GrBP5 (biotin-graphite binding peptide fusion, Bio-IMVTESSDYSSY) (peptide)
peptide: IMVTESSDYSSY
HELM: PEPTIDE1{[O=C1N[C@H]2[C@H](CS[C@H]2CCCCC(=O)[*:2])N1].I.M.V.T.E.S.S.D.Y.S.S.Y}$$$$V2.0
SMILES: CC[C@H](C)[C@H](NC(=O)CCCC[C@@H]1SC[C@@H]2NC(=O)N[C@@H]21)C(=O)N[C@@H](CCSC)C(=O)N[C@H](C(=O)N[C@H](C(=O)N[C@@H](CCC(=O)O)C(=O)N[C@@H](CO)C(=O)N[C@@H](CO)C(=O)N[C@@H](CC(=O)O)C(=O)N[C@@H](Cc1ccc(O)cc1)C(=O)N[C@@H](CO)C(=O)N[C@@H](CO)C(=O)N[C@@H](Cc1ccc(O)cc1)C(=O)O)[C@@H](C)O)C(C)C
notes: Synthetic 12-mer with N-terminal biotin; In the assays it was self-assembled on graphite (nanowires or monolayer) or on a graphene FET sensor; also called biotinilated peptide; bio-GrBP5 peptide nanowires
For the molecule B1, the Kd was around 1.5 nM.
